Reference: the Immune Epitope Database (IEDB)
Blank lines part the entries; values can stand above or below the sequence they belong to.

How the values were obtained:
HLA-A*02:01 [1] = assay: IEDB peptide-MHC binding, purified MHC/competitive/fluorescence; filed as Kd, often an IC50 or EC50 that approximates it; ≥ and ≤ were set here for values at or beyond the usual limits of such assays; details: source organism: Homo sapiens
HLA-B*39:01 = assay: as above; details: source organism: Homo sapiens
HLA-A*69:01 = assay: as above; details: source organism: Homo sapiens
HLA-B*18:01 [2] = assay: as above
HLA-B*15:01 = assay: as above; details: source organism: Homo sapiens
HLA-B*51:01 [3] = assay: as above
HLA-A*26:01 = assay: as above
HLA-B*57:01 = assay: as above
HLA-B*15:17 = assay: as above
HLA-B*46:01 = assay: as above
HLA-B*27:03 = assay: as above
HLA-B*53:01 = assay: IEDB peptide-MHC binding, purified MHC/competitive/radioactivity; filed as Kd, often an IC50 or EC50 that approximates it; ≥ and ≤ were set here for values at or beyond the usual limits of such assays; details: source organism: Dengue virus 3 Martinique/1243/1999
HLA-B*51:01 [4] = assay: as above; details: source organism: Dengue virus 3 Martinique/1243/1999
HLA-A*24:03 = assay: IEDB peptide-MHC binding, purified MHC/direct/fluorescence; filed as Kd, often an IC50 or EC50 that approximates it; ≥ and ≤ were set here for values at or beyond the usual limits of such assays
HLA-B*40:02 = assay: IEDB peptide-MHC binding, purified MHC/competitive/radioactivity; filed as Kd, often an IC50 or EC50 that approximates it; ≥ and ≤ were set here for values at or beyond the usual limits of such assays
HLA-B*18:01 [5] = assay: as above
HLA-B*45:01 = assay: as above
HLA-B*44:02 = assay: as above
HLA-B*44:03 = assay: as above
HLA-B*40:01 = assay: as above
HLA-B*35:01 = assay: as above; details: source organism: Dengue virus 3 Martinique/1243/1999
HLA-A*02:01 [6] = assay: as above
HLA-A*02:03 = assay: as above; details: source organism: Homo sapiens
HLA-A*68:02 = assay: as above; details: source organism: Homo sapiens
HLA-A*02:01 [7] = assay: IEDB peptide-MHC binding, purified MHC/direct/fluorescence; filed as Kd, often an IC50 or EC50 that approximates it; ≥ and ≤ were set here for values at or beyond the usual limits of such assays; details: source organism: Itapua hantavirus
HLA-A*03:01 = assay: as above; details: source organism: Araucaria virus
HLA-B*48:01 = assay: as above; details: source organism: Salmonella enterica subsp. enterica serovar Typhi
[8] = source organism: SARS coronavirus Tor2
[9] = source organism: Mammarenavirus choriomeningitidis
[10] = source organism: Lymphocytic choriomeningitis virus (strain Traub)
[11] = source organism: Mammarenavirus guanaritoense
[12] = source organism: Mammarenavirus brazilense
[13] = source organism: Araucaria virus
[14] = source organism: Lymphocytic choriomeningitis virus (strain Armstrong)

- Kd (HLA-A*02:01 [1]): ≥ 20 µM
- Kd (HLA-B*39:01): ≥ 20 µM
- Kd (HLA-A*69:01): ≥ 20 µM
- Kd (HLA-B*18:01 [2]; source organism: Homo sapiens): ≥ 20 µM
- Kd (HLA-B*15:01): ≥ 20 µM
- Kd (HLA-B*51:01 [3]; source organism: Homo sapiens): ≥ 20 µM
- Kd (HLA-A*26:01; source organism: Homo sapiens): ≥ 20 µM
- Kd (HLA-B*57:01; source organism: Homo sapiens): ≥ 20 µM
- Kd (HLA-B*15:17; source organism: Homo sapiens): ≥ 20 µM
- Kd (HLA-B*46:01; source organism: Homo sapiens): ≥ 20 µM
- Kd (HLA-B*27:03; source organism: Homo sapiens): ≥ 20 µM
Sequence: IYDFYYLDY

Sequence: TPTGTVMDI
- Kd (HLA-B*53:01): 0.114 µM
- Kd (HLA-B*51:01 [4]): 7.24 µM

Sequence: SFMQEIPTF
- Kd (HLA-A*24:03; source organism: Mammarenavirus juninense): 0.0003 µM

Sequence: AEVQIDRLIT
- Kd (HLA-B*40:02; [8]): 0.0587 µM
- Kd (HLA-B*18:01 [5]; [8]): ≥ 25.9 µM
- Kd (HLA-B*45:01; [8]): 0.157 µM
- Kd (HLA-B*44:02; [8]): 1.66 µM
- Kd (HLA-B*44:03; [8]): 0.0905 µM
- Kd (HLA-B*40:01; [8]): 1.24 µM

Sequence: FPQSNAPIQD
- Kd (HLA-B*53:01): 1.94 µM
- Kd (HLA-B*51:01 [4]): ≥ 69.6 µM
- Kd (HLA-B*35:01): 1.11 µM

Sequence: AELLPDTTY
- Kd (HLA-B*40:02; [9]): ≥ 40.4 µM
- Kd (HLA-B*18:01 [5]; [9]): 1.16 µM
- Kd (HLA-B*45:01; [9]): 7.85 µM
- Kd (HLA-B*44:02; [9]): 0.353 µM
- Kd (HLA-B*44:03; [9]): 0.52 µM
- Kd (HLA-B*40:01; [9]): ≥ 43.3 µM

Sequence: EEKGISGTS
- Kd (HLA-B*40:02; [10]): ≥ 45.4 µM
- Kd (HLA-B*18:01 [5]; [10]): ≥ 77.5 µM
- Kd (HLA-B*45:01; [10]): 2.22 µM
- Kd (HLA-B*44:02; [10]): ≥ 34.1 µM
- Kd (HLA-B*44:03; [10]): ≥ 78.1 µM
- Kd (HLA-B*40:01; [10]): ≥ 53.8 µM

Sequence: LYNTAIVGL
- Kd (HLA-A*24:03; source organism: Mycobacterium tuberculosis variant bovis): 0.0008 µM

Sequence: GLSRYVAR
- Kd (HLA-A*02:01 [6]; source organism: Hepatitis B virus): ≥ 50 µM

- Kd (HLA-A*02:01 [6]; source organism: Homo sapiens): ≥ 58.8 µM
- Kd (HLA-A*02:03): ≥ 27.6 µM
- Kd (HLA-A*68:02): ≥ 60 µM
Sequence: DMEISAYRKL

Sequence: PECSDSPLVL
- Kd (HLA-B*40:02; [11]): 3.15 µM
- Kd (HLA-B*18:01 [5]; [11]): 17.3 µM
- Kd (HLA-B*45:01; [11]): ≥ 70 µM
- Kd (HLA-B*44:02; [11]): ≥ 70.2 µM
- Kd (HLA-B*44:03; [11]): ≥ 70.1 µM
- Kd (HLA-B*40:01; [11]): ≥ 33 µM

Sequence: ADMSKLISL
- Kd (HLA-B*40:02; [12]): 0.287 µM
- Kd (HLA-B*18:01 [5]; [12]): ≥ 77.5 µM
- Kd (HLA-B*45:01; [12]): ≥ 77.7 µM
- Kd (HLA-B*44:02; [12]): ≥ 36.9 µM
- Kd (HLA-B*44:03; [12]): ≥ 33.6 µM
- Kd (HLA-B*40:01; [12]): 17.4 µM

Sequence: FLAAECPFL
- Kd (HLA-B*18:01 [2]; [13]): ≥ 20 µM
- Kd (HLA-B*51:01 [3]; [13]): ≥ 20 µM
- Kd (HLA-A*26:01; [13]): ≥ 20 µM
- Kd (HLA-B*57:01; [13]): ≥ 20 µM
- Kd (HLA-B*15:17; [13]): ≥ 20 µM
- Kd (HLA-B*46:01; [13]): ≥ 20 µM
- Kd (HLA-B*27:03; [13]): ≥ 20 µM
- Kd (HLA-A*02:01 [7]): 0.0017 µM
- Kd (HLA-A*03:01): ≥ 20 µM

Sequence: REAPAHVST
- Kd (HLA-B*40:02; [8]): 0.0442 µM
- Kd (HLA-B*18:01 [5]; [8]): 5.19 µM
- Kd (HLA-B*45:01; [8]): 0.108 µM
- Kd (HLA-B*44:02; [8]): 4.58 µM
- Kd (HLA-B*44:03; [8]): 8.47 µM
- Kd (HLA-B*40:01; [8]): 0.0468 µM

Sequence: TEAILQLGDL
- Kd (HLA-B*40:02; [14]): 0.936 µM
- Kd (HLA-B*18:01 [5]; [14]): 10.6 µM
- Kd (HLA-B*45:01; [14]): 13.3 µM
- Kd (HLA-B*44:02; [14]): 2.48 µM
- Kd (HLA-B*44:03; [14]): 4.3 µM
- Kd (HLA-B*40:01; [14]): 2.96 µM

Sequence: RELHLSWEV
- Kd (HLA-B*40:02; [8]): 0.00497 µM
- Kd (HLA-B*18:01 [5]; [8]): 0.0788 µM
- Kd (HLA-B*45:01; [8]): 0.0177 µM
- Kd (HLA-B*44:02; [8]): 0.0877 µM
- Kd (HLA-B*44:03; [8]): 0.0215 µM
- Kd (HLA-B*40:01; [8]): 0.00307 µM

Sequence: RAVEPGSML
- Kd (HLA-B*48:01): 0.713 µM
